Reference: article PMC3691600, “Conversion of fatty aldehydes into alk (a/e)nes by in vitro reconstituted cyanobacterial aldehyde-deformylating oxygenase with the cognate electron transfer system” (Biotechnology for Biofuels, 2013)

Assays:
[1] = substrate: CCCCCCC=O; assay: GC headspace assay of n-hexane formation; type: biochemical, Synechococcus elongatus; settings: chemical reductants PMS/NADH, ferrous ammonium sulfate, HEPES pH 7.2, 100 mM KCl, 10% glycerol, 4% DMSO, 37°C (conditions of the kcat assay)
[2] = substrate: NC(=O)C1=CN([C@@H]2O[C@H](COP(=O)(O)OP(=O)(O)OC[C@H]3O[C@@H](n4cnc5c(N)ncnc54)[C@H](OP(=O)(O)O)[C@@H]3O)[C@@H](O)[C@H]2O)C=CC1; assay: purified protein; type: biochemical, Synechococcus elongatus; settings: 0.7 mM potassium ferricyanide, 50 mM Tris-HCl pH 8.0, 25°C

Protein | Km [1] [µM] | kcat [1] [s⁻¹] | Km [2] [µM] | kcat [2] [s⁻¹] | kcat/Km [2] [M⁻¹ s⁻¹]
ADO 1593 (Synechococcus elongatus PCC 7942 = FACHB-805) (protein, apo-ADO reconstituted with ferrous iron) MPQLEASLELDFQSESYKDAYSRINAIVIEGEQEAFDNYNRLAEMLPDQRDELHKLAKMEQRHMKGFMACGKNLSVTPDMGFAQKFFERLHENFKAAAAEGKVVTCLLIQSLIIECFAIAAYNIYIPVADAFARKITEGVVRDEYLHRNFGEEWLKANFDASKAELEEANRQNLPLVWLMLNEVADDARELGMERESLVEDFMIAYGEALENIGFTTREIMRMSAYGLAAV | 224 ± 40 | 0.002 ± 0.00033 | – | – | –
FNR (SynPcc7942_0978) (Synechococcus elongatus PCC 7942 = FACHB-805) (protein) MLNASVAGGAATTTYGNRLFIYEVIGLRQAEGEPSDSSIRRSGSTFFKVPYSRMNQEMQRILRLGGKIVSIRPAEEAAANNGAAPLQAAAEEPAAAPTPAPAAKKHSAEDVPVNIYRPNKPFVGKVLSNEPLVQEGGIGVVQHLTFDISEGDLRYIEGQSIGIIPDGTDDKGKPHKLRLYSIASTRHGDHVDDKTVSLCVRQLQYQNEAGETINGVCSTFLCGLKPGDDVKITGPVGKEMLLPADTDANVIMMGTGTGIAPFRAYLWRMFKDNERAINSEYQFNGKAWLIFGIPTTANILYKEELEALQAQYPDNFRLTYAISREQKNEAGGRMYIQDRVAEHADEIWNLLKDEKTHVYICGLRGMEDGIDQAMTVAAAKEDVVWSDYQRTLKKAGRWHVETY | – | – | 92.5 ± 7.6 | 227 ± 7 | 2.5e+06 ± 300000
